Test results from patent US20240285784A1, “PEPTIDIC CONJUGATES OF SN38 USEFUL IN THE TREATMENT OF CANCER” (FUNDACIÓ INSTITUT DE RECERCA BIOMÈDICA (IRB BARCELONA), priority 2020, published 2024).
Values after ≈ are worked out from the molar mass of the structure shown. Like-named read-outs stand apart in the source and are kept apart here. *1 amine or outer side, *2 acyl side, *3 side chain or, on linkers, in order; H or OH if unused. Where a SMILES comes first, the peptide text is derived from it. Bridges are numbered along the chain shown (N, C = ends). [ ]: non-standard residue; d: D form. The star is where a group is joined. X1 = CCc1c2c(nc3ccc(O)cc13)-c1cc3c(c(=O)n1C2)COC(=O)[C@@]3(CC)OC(=O)CCCCn1cc(CCCC(=O)NCCCOCCOCCOCCCN*)nn1; Suc = O=C(CCC(=O)[*:2])[*:1]; Dap = NC[C@H](N)C(=O)O

Legend:
[1] = Stability in human serum at 37° C. in vitro; assay type: in vitro ADME; conditions: 200 μM in HBSS, 90% human serum
Experimental: Regarding to the stability in human serum of the SN38-linker A-MiniAp4 (Ia) (example 7), it was incubated at a concentration of 200 μM in buffer HBSS at 37° C. in the presence of 90% human serum. At a range of times, 100 μL aliquots were collected to which 400 μL cold methanol was added in order to precipitate the serum proteins. The samples were centrifuged at 3000 rpm at 4° C. during 30 min, filtered and analyzed by UPLC-PDA and UPLC-MS to determine the degree of degradation of SN38-Linker A-MiniAp4 (Ia).

athymic nude mice = test: Maximum tolerated dose, single intravenous injection; assay type: in vivo; conditions: 200 mg/kg single i.v., following 14 days, compared to untreated control animals
Experimental: (§1) To evaluate the toxicity of irinotecan and SN38-linker A-MiniAp4 (Ia) (also named G2B-001) in athymic nude mice (10 week old; 8 mice per group) first the maximum tolerated dose (MTD) of SN38-linker A-MiniAp4 (Ia) was studied, by intravenous injection. Three mice were injected at dose levels 200, 500 and 1000 mg/kg, and observed for symptoms including death or weight lost during the following 14 days. The MTD was established at 200 mg/kg.

[2] = as above; assay type: in vivo, mice; conditions: mouse, in vivo; single intravenous injection, athymic nude mice, observed 14 days
Experimental: as §1

[3] = Stability in mouse plasma at 37° C. in vitro; assay type: in vitro ADME
Experimental: (§2) To assess the stability of the SN38-linker A-MiniAp4 (Ia) (example 7) in human, mouse, dog and rat plasma at 37° C., the compound was prepared at 200 μM in plasma samples in triplicates at each timepoint (0 h, 1 h, 4 h, 8 h and 24 h) for each species. Once the incubation was finalised, plasma proteins were immediately precipitated by adding chilly methanol (ratio 4:1, methanol:plasma) and tubes were shacked for few seconds (vortex). Samples were centrifuged at 3,000 rpm for 30 minutes at 4° C., supernatants were collected, transferred to the injection plate and injected to LC-MS system.
(§3) Compound recovery was determined by comparing the analyte response in a biological sample that is spiked with the analyte and processed, with the response in a methanol sample that is spiked with the analyte and processed.
(§4) Plasma stability assay was performed using blank plasma from untreated volunteers/animals. K2-EDTA was used as anticoagulant. Human blank plasma used was obtained from Hospital Sant Pau, mouse blank plasma used was obtained from Janvier, dog blank plasma used was obtained from Isoquimen and rat blank plasma used were obtained from Draconis Pharma.

[4] = Stability in human plasma at 37° C. in vitro; assay type: in vitro ADME
Experimental: as §2, §3, §4
To assess the stability of the G2B-001 lineal (Ib) (example 16) in human plasma at 37° C., the compound was prepared at 200 µM in plasma samples in triplicates at each timepoint (0 h, 0.5 h, 1 h, 2 h, 4 h, 8 h and 24 h). Once the incubation was finalised, plasma proteins were immediately precipitated by adding chilly methanol (ratio 4:1, methanol:plasma) and tubes were shacked for few seconds (vortex). Samples were centrifuged at 3,000 rpm for 30 minutes at 4° C., supernatants were collected, transferred to the injection plate and injected to LC-MS system. Compound recovery was determined by comparing the analyte response in a biological sample that is spiked with the analyte and processed, with the response in a methanol sample that is spiked with the analyte and processed.
Plasma stability assay was performed using blank plasma from untreated volunteers. K2-EDTA was used as anticoagulant. Human blank plasma used was obtained from Hospital Sant Pau.

[5] = Stability in rat plasma at 37° C. in vitro; assay type: in vitro ADME
Experimental: as §2, §3, §4

[6] = Evaluation of solubility in water; assay type: physicochemical
Experimental: 25 mg of SN38-linker A-MiniAp4 were dissolved in H2O, showing a completely transparent solution. This means that SN38-linker A-MiniAp4 has a solubility in water higher than 5 mg/mL, more than 400-fold the solubility in water described for SN38 (Mol. Pharmaceutics, 2016, 13, 379-390).

[7] = Turbidimetric aqueous solubility; assay type: physicochemical; conditions: for solubility at 2 hr: kinetic from dmso stock, 0.01 M phosphate buffered saline pH 7.4, 1% DMSO, 2 hr at 37° C., absorbance 620 nm
Experimental: Each test compound concentration was then further diluted 1 in 100 in buffer (0.01 M phosphate buffered saline pH 7.4) so that the final DMSO concentration was 1% and the final test compound concentrations were 1, 3, 10, 30 and 100 μM. The experiment was performed at 37° C. and each concentration was incubated in 7 replicate wells. The plates were incubated for 2 hr at 37° C. before the absorbance was measured at 620 nm.

SMILES: CCc1c2c(nc3ccc(O)cc13)-c1cc3c(c(=O)n1C2)COC(=O)[C@@]3(CC)OC(=O)CCCCn1cc(CCCC(=O)NCCCOCCOCCOCCCNC(=O)CCC(=O)N[C@H]2CNC(=O)C[C@@H](C(N)=O)NC(=O)[C@H](CC(C)C)NC(=O)[C@H](C)NC(=O)[C@H]([C@@H](C)O)NC(=O)[C@H](CCC(=O)O)NC(=O)[C@@H]3CCCN3C(=O)[C@H](C)NC(=O)[C@H](CCCCN)NC2=O)nn1 [SN38-linker A-MiniAp4 (Ia)] ({X1-Suc}-[Dap]KAPETALD-NH2; lactam 1-9)
- half-life at 200 μM [1]: > 24 h
- degree of degradation in human serum ([1]; 24 h): No significant degradation
- symptoms including death or weight lost at the MTD (athymic nude mice): survived and did not show immediate symptoms of distress or significant weight lost
- MTD at 14 days [2]: 200 mg/kg
- half-life at 200 μM [3]: 8 to 24 h
- recovery at 24 h, 200 μM ([3]; 24 h, read-out: % Recovery after 24 h in mouse plasma): 57.1%
- half-life at 200 μM [4]: > 24 h
- recovery at 24 h, 200 μM ([4]; 24 h, read-out: % Recovery after 24 h in human plasma): 65.1%
- half-life at 200 μM [5]: > 24 h
- recovery at 24 h, 200 μM ([5]; 24 h, read-out: % Recovery after 24 h in rat plasma): 61.2%
- solubility in water relative to the solubility in water described for SN38 ([6]; versus literature solubility of SN38 (Mol. Pharmaceutics, 2016, 13, 379-390)): more than 400 fold
- solubility ([6]; water, 25 mg dissolved in H2O, completely transparent solution): > 5000 µg/mL
- solubility at 2 hr ([7]; 37 °C, pH 7.4, aqueous buffer, read-out: Turbidity aqueous solubility, Estimated precipitation range, Lower bond): 30 µM (≈ 54.8 µg/mL)
- solubility at 2 hr ([7]; 37 °C, pH 7.4, aqueous buffer, read-out: Turbidity aqueous solubility, Estimated precipitation range, Upper bond): 100 µM (≈ 183 µg/mL)
- solubility at 2 hr ([7]; aqueous buffer, read-out: Turbidity aqueous solubility, Estimated precipitation range, Calculated mid-range): 65 µM (≈ 119 µg/mL)
- solubility problems in turbidimetric solubility test ([7]; up to 100 micromolar): No solubility problems
